Measured values as given in patent publication US8455433B2, “Process for solubilizing glucagon-like peptide 1 compounds” (Eli Lilly and Company, priority 2000, dated 2013).

Legend:
[1] = Secondary structure by Fourier Transform Infrared Spectroscopy (FTIR); assay type: physicochemical; conditions: for percent alpha helix content / percent beta sheet content: Table 3, pH 10.5 excursion experiment; for alpha helix percent 1657 cm^-1 / beta sheet character percent 1624 + 1696 cm^-1: Samples 1-5 before and 1A-5A after base excursion pH 12.3, Table 2; for 1624 + 1696 cm^-1 total beta sheet, % / 1657 cm^-1 Alpha helix, %: purified, lyophilized batches, Table 1
Method: Four different batches of purified, lyophilized Val-8 GLP-1(7-37)OH were analyzed for secondary structure characteristics by Fourier Transform Infra-red Spectroscopy (FTIR) to assess alpha helix and beta sheet content of the preparations. Deconvolution was done on the Amide I region (1750-1600 cm^−1) using BioRad Win-IR Pro Software version 2.5. The results are shown below in the Table 1:
Each of Samples 1-5 was measured for secondary structure characteristics by Fourier Transform Infrared Spectroscopy (FTIR). In addition, each Sample 1-5 was placed into 20 mM phosphate solution (pH 7.2) and the pH raised to 12.3 by addition of 1N sodium hydroxide for no more than 3 minutes. All samples then dissolved and the solutions became clear. The pH of each solution was then adjusted to 7.0 by addition of 1N hydrochloric acid. Samples 1A-5A, obtained from Samples 1-5, respectively, were then obtained by lyophilization of the solutions and dried in vacuo. The secondary structural characteristics of Samples 1A-5A were assessed by FTIR. The results of the FTIR analysis of Samples 1-5 and 1A-5A are shown below in Table 2:
In another example of the effects of base excursion on secondary structure, a purified, lyophilized sample of Val^8-GLP-1(7-37)OH purified by reversed chromatography was either lyophilized (0.1 gram) or precipitated by addition of sufficient 3.0 M sodium dihydrogen phosphate (pH 3.80) to result in a 0.6 M phosphate solution. The resultant precipitate was washed with 10 mM sodium acetate at pH 5.5 and the washed precipitate was dried in vacuo. A second portion of the washed precipitate was solubilized by raising the pH of the material to 10.5 for 30 minutes at room temperature by addition of 1N sodium hydroxide. The pH of that solution was then reduced to 7.0 by addition of 1.0 N hydrochloric acid and the solution was then lyophilized. The secondary structure of the three samples was determined by FTIR.

[2] = physchem; assay type: physicochemical
Method: Val^8-GLP-1(7-37)OH (1 gram) lyophilized powder was dissolved in 25 mM ammonium bicarbonate, pH 8.0 (100 ml). The solution was stirred with a TEFLON stir bar at about 200 rpm at 21° C. (ambient temperature) for 16 hours. At varying times, usually within 30 minutes, the solution became hazy. On continued stirring, the haze became visibly more dense. The kinetics of the turbidity were measured by rate of formation of turbidity, i.e. absorbance at 340 nm. The precipitated protein was harvested either by filtration, e.g. Whatman 1 filter disc, or centrifugation. The supernatant was assayed for protein content either by Biuret Colorimetric Assay obtained from Pierce (Rockford, Ill.) or UV absorbance at 280 nm. By either method, the protein precipitate constituted in excess of 90% of the starting material, i.e. there was less than 10% of the protein remaining in the supernatant fraction. The collected precipitate was dried in vacuo, i.e. in a lyophilizer. The resultant precipitated (0.96 grams) material was soluble in 20 mM phosphate at pH 7.2 at less than 0.01 mg/ml. Solubility was tested by suspension of the solid in the buffer, adjustment of pH, if necessary, and filtration through a 0.2 micron filter. The protein content of the filtrate was tested by either Biuret Colorimetric Assay, UV absorbance at 280 nm, or by high pressure liquid chromatography analysis (HPLC) analysis. […]

Compound	alpha helix percent 1657 cm^-1 [1]	beta sheet character percent 1624 + 1696 cm^-1 [1]	1624 + 1696 cm^-1 total beta sheet, % [1]	1657 cm^-1 Alpha helix, % [1]	other results
Phosphate precipitate: Val^8-GLP-1(7-37)OH precipitated in 0.6 M phosphate, washed and dried in vacuo					percent alpha helix content [1]: 57%; percent beta sheet content [1]: 35%
3A: Sample 3 after pH 12.3 excursion, neutralized to 7.0 and lyophilized [Sample 3A]	62.2%	23.7%			
2A: Sample 2 after pH 12.3 excursion, neutralized to 7.0 and lyophilized [Sample 2A]	85.9%	none observed			
Sample 4: soluble fraction of Val^8-GLP-1(7-37)OH stirred in 10 mM phosphate pH 7.2	75.8%	14.7%	28.9%	63.6%	
Sample 1: Val^8-GLP-1(7-37)OH isoelectric precipitate at pH 5.5 from 10 mM acetic acid	24.9%	69.8%	31.4%	62.7%	
Sample 5: precipitated fraction of Val^8-GLP-1(7-37)OH stirred in 10 mM phosphate pH 7.2	12.9%	57.3%			
CC[C@H](C)[C@H](NC(=O)[C@H](Cc1ccccc1)NC(=O)[C@H](CCC(=O)O)NC(=O)[C@H](CCCCN)NC(=O)[C@H](C)NC(=O)[C@H](C)NC(=O)[C@H](CCC(N)=O)NC(=O)CNC(=O)[C@H](CCC(=O)O)NC(=O)[C@H](CC(C)C)NC(=O)[C@H](Cc1ccc(O)cc1)NC(=O)[C@H](CO)NC(=O)[C@H](CO)NC(=O)[C@@H](NC(=O)[C@H](CC(=O)O)NC(=O)[C@H](CO)NC(=O)[C@@H](NC(=O)[C@H](Cc1ccccc1)NC(=O)[C@@H](NC(=O)CNC(=O)[C@H](CCC(=O)O)NC(=O)[C@H](C)NC(=O)[C@@H](N)Cc1c[nH]cn1)[C@@H](C)O)[C@@H](C)O)C(C)C)C(=O)N[C@@H](C)C(=O)N[C@@H](Cc1c[nH]c2ccccc12)C(=O)N[C@@H](CC(C)C)C(=O)N[C@H](C(=O)N[C@@H](CCCCN)C(=O)NCC(=O)N[C@@H](CCCN=C(N)N)C(=O)NCC(=O)O)C(C)C [GLP-1(7-37)OH]					solubility thermodynamic ([2]; solubility): < 100 µg/mL; solubility thermodynamic ([2]; solubility (usually)): < 50 µg/mL
Sample 2: Val^8-GLP-1(7-37)OH isoelectric precipitate approaching pH 5.5 from the alkaline side	51.9%	40.5%	29.3%	62.8%	
Lyophilized mainstream: Val^8-GLP-1(7-37)OH purified by reversed chromatography and lyophilized					percent alpha helix content [1]: 71%; percent beta sheet content [1]: 16%
Sample 3: gelled Val^8-GLP-1(7-37)OH from acetic acid/25% acetonitrile incubated at 4 C for 3.1 months	25.5%	70.0%	30.6%	63.6%	
4A: Sample 4 after pH 12.3 excursion, neutralized to 7.0 and lyophilized [Sample 4A]	86.0%	none observed			
pH 10.5 excursion: washed phosphate precipitate solubilized at pH 10.5 for 30 minutes, reduced to pH 7.0, lyophilized					percent alpha helix content [1]: 71%; percent beta sheet content [1]: 13%
5A: Sample 5 after pH 12.3 excursion, neutralized to 7.0 and lyophilized [Sample 5A]	90.6%	none observed			
